Source: the Human Domainome abundance scans (Beltran et al. 2025)

B1: Triacylglycerol hydrolase DDHD2, residues 389 to 447; numbered along this chain, O94830 (parent)
chain: TLEEDLKKLQLSEFFDIFEKEKVDKEALALCTDRDLQEIGIPLGPRKKILNYFSTRKNS

Variants of: B1
Experiment: abundance fitness (aPCA) (normalised: wild type 0, dead -1); higher = more abundant; growth selection in yeast, the domain comes from the species named
Settings: Homo sapiens

Abundance fitness: each site, then its substitutions
S12: A -0.023, G -0.099, K -0.032, T 0.017, M -0.119, Y -0.13, D 0.037, R -0.274, W -0.137, E 0.016, C -0.22, V -0.099, H 0.052, P -0.301, Q 0.101, L -0.104, I -0.012
E4: L -0.371, V -0.629, Y -0.777, N -0.341, S -0.332, Q -0.103, R -0.493, I -0.432, T -0.589, M -0.109, A -0.286, W -0.811, D -0.205, P -0.996, F -0.264, H -0.33, G -0.436
D5: Q -0.062, K -0.42, Y -0.614, G -0.536, L 0.021, V -0.343, P -0.904, H 0.004, S -0.016, T 0.15, R -0.568, E 0.123, F 0.032, C -0.033, N -0.319, M -0.194, A -0.144, I -0.144
I17: V 0.128
K22: A -0.039, N 0.381, D 0.194, M -0.103, F 0.002, S 0.107, L -0.172, W -0.729, E 0.141, Y 0.089, G 0.455, H 0.076, C -0.083, I -0.479, Q -0.247, T -0.16, R -0.193
K25: D -0.027, W -0.329, T -0.302, P -0.048, L 0.03, M 0.086, I -0.041, N -0.494, S -0.088, H 0.159, F -0.078, G 0.083, A -0.05, R -0.053, Q -0.285, V 0.027, E 0.293
D16: H -0.033, R 0.049, Q 0.106, A 0.026, S -0.057, T -0.019, I -0.156, W -0.036, F 0.015, N -0.025, L -0.33, P -0.145, Y -0.435, C -0.084, G -0.088, E 0.075, K 0.089, V -0.096, M -0.228
E19: G -0.359, H -0.024, L 0.054, A -0.225, Y -0.255, P -0.857, S -0.054, T 0.023, M 0.016, W -0.463, C -0.161, D 0.129, V 0.049, N -0.187, F -0.082, R -0.007, I 0.007
D24: L -0.881, F -0.033, T 0.494, V -0.707, C -0.087, N 0.155, M -0.286, E -0.023, Q -0.044, W -0.888, I -1.2, H -0.587, A 0.026, P -0.561, K -0.115, S 0.466, Y -0.627, R -0.396
F18: T -0.759, V -0.45, M -0.225, N -0.197, D -0.399, Y -0.293, P -0.035, H -0.533, I -0.16, Q -0.31, E -0.508, K -0.081, G -0.644, S -0.445, A -0.134, R -0.685, W -0.535
V23: W 0.593, N -0.414, K 0.101, M 0.773, Q -0.331, E -0.434, R -0.311, Y 0.451, P -0.374, H -0.376, L 0.354, G -0.426, F 0.437, D -0.177, A -0.339, S -0.391, C -0.47, I 0.417, T -0.231
L6: V -1.12, C -0.888, F 0.134, R -0.833, Y -0.675, G -0.698, P -0.35, N -0.32, E -0.765, H -0.754, M -0.208, Q -0.336, W -0.45, D 0.082, K -0.335, A -1.1, S -0.767, T -0.492
F15: N 0.05, E -0.029, Y -0.114, S 0.088, L 0.02, K 0.068, A -0.005, H -0.084, P -0.537, D -0.465, T 0.112, M -0.175, R -0.077, Q -0.103, G 0.007, V -0.097, I -0.513, C -0.035, W -0.311
E13: W -1.45, P -0.432, L -0.608, Q -0.215, Y -0.012, V -0.109, T -0.538, M -0.135, A -0.036, S -0.252, G -0.576, R -0.408
E26: F -0.223, H 0.153, A -0.052, G 0.27, I -0.219, D 0.002
F14: L 0, P -0.581, W -0.179, M -0.015, E -0.592, V -0.505, Y -0.506, H -0.599, R -0.671, A -0.098, I -0.365, C -0.28, Q -0.205, T -0.521, S -0.511, G -0.775, N -0.193
Q10: M -0.1, P -0.863, Y -0.191, C -0.101, T -0.241, E 0.119, F -0.421, R -0.247, I -0.852, V -0.667, N 0.011, G -0.131, H -0.138, A -0.22, L -0.52, D 0.069
E21: Y 0.385, Q 0.137, W 0.299, K 0.809, S 0.453, A 0.599, N 0.428, F 0.616, H 0.155, D -0.275, P -0.27, R 0.508, I 0.245, L 0.45, M 0.86, C 0.257, T 0.212, V 0.029
L11: A -0.882, H -0.83, R -0.996, V -0.401, G -1.22, T -0.871, I -0.257, Y -1.15, C -0.462, E -0.856, K -1.14, F -1.05, P -1, M -0.125, W -1.12, N -1.02, S -0.969
K7: V -0.43, R 0.108, C -0.294, N -0.153, M -0.424, A -0.032, S -0.08, T -0.196, P -0.689, G -0.056, Y -0.006, E -0.017, L -0.203, F -0.038, H -0.07, I -0.741, Q 0.083
K20: Q -0.317, G -0.26, F -0.524, H -0.212, V -0.432, N -0.142, A 0.07, C -0.538, M 0.081, T -0.104, I -0.321, L -0.386, S -0.332, P -0.591, Y -0.324, D -0.126, W -0.536
